According to article PMC4341510, “Jasmonate-responsive expression of paclitaxel biosynthesis genes in Taxus cuspidata cultured cells is negatively regulated by the bHLH transcription factors TcJAMYC1, TcJAMYC2, and TcJAMYC4”:

Columns and labels:
[1] = target: T1, TcJAMYC1 (Taxus cuspidata (cell culture line P991), UniProt B9VVN9 1-660); assay: competition EMSA; vs CATGTG probe; competes better than CATGTG self; 20 mM HEPES-KOH pH 7.9, 20% glycerol, 0.2 mM EDTA, 100 mM KCl, 0.5 mM PMSF, 1 mM DTT, 15 mM MgCl2, 5 ug BSA; 175 fmol probe in 20 ul; gel 7% PAGE, 0.5X TBE, 4 C; binding temperature not stated; settings: protein: recombinant; tags: N-terminal 6xHis (pDEST17); chain copies: 2; label: 32P by Klenow fill-in when probe; 5' overhang 4 nt at both ends; labeled probe filled in
T1 sequence (B9VVN9 entry or part of it): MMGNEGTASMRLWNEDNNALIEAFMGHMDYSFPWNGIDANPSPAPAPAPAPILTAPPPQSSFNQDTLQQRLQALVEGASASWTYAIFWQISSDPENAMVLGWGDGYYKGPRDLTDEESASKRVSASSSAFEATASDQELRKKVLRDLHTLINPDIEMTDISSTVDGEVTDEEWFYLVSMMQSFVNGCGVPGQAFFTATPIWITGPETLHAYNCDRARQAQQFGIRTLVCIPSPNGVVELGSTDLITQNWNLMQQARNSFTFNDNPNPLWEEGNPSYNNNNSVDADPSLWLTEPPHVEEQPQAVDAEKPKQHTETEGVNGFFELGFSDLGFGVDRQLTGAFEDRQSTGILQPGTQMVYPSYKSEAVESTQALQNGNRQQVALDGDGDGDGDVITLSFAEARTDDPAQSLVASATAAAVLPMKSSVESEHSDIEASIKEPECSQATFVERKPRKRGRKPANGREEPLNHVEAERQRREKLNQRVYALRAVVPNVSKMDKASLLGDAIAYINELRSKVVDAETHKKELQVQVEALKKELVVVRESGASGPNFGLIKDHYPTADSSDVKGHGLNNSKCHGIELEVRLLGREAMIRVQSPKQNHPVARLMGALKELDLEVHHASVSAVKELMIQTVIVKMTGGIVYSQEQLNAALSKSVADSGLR

[2] = target: T1, TcJAMYC1; assay: EMSA; 25-75 ng protein; 20 mM HEPES-KOH pH 7.9, 20% glycerol, 0.2 mM EDTA, 100 mM KCl, 0.5 mM PMSF, 1 mM DTT, 15 mM MgCl2, 5 ug BSA; 175 fmol probe in 20 ul; gel 7% PAGE, 0.5X TBE, 4 C; binding temperature not stated; settings: protein: recombinant; tags: N-terminal 6xHis (pDEST17); chain copies: 2; label: 32P by Klenow fill-in when probe; 5' overhang 4 nt at both ends; labeled probe filled in
[3] = target: T1, TcJAMYC1; assay: EMSA; 25-100 ng protein; 20 mM HEPES-KOH pH 7.9, 20% glycerol, 0.2 mM EDTA, 100 mM KCl, 0.5 mM PMSF, 1 mM DTT, 15 mM MgCl2, 5 ug BSA; 175 fmol probe in 20 ul; gel 7% PAGE, 0.5X TBE, 4 C; binding temperature not stated; settings: protein: recombinant; tags: N-terminal 6xHis (pDEST17); chain copies: 2; label: 32P by Klenow fill-in when probe; 5' overhang 4 nt at both ends; labeled probe filled in
[4] = target: GUS (beta-glucuronidase) (UniProt P05804 1-603); assay: EMSA; 25-75 ng protein; 20 mM HEPES-KOH pH 7.9, 20% glycerol, 0.2 mM EDTA, 100 mM KCl, 0.5 mM PMSF, 1 mM DTT, 15 mM MgCl2, 5 ug BSA; 175 fmol probe in 20 ul; gel 7% PAGE, 0.5X TBE, 4 C; binding temperature not stated; settings: protein: recombinant; label: 32P by Klenow fill-in when probe; 5' overhang 4 nt at both ends; labeled probe filled in
Chain of GUS (beta-glucuronidase) (P05804 whole entry): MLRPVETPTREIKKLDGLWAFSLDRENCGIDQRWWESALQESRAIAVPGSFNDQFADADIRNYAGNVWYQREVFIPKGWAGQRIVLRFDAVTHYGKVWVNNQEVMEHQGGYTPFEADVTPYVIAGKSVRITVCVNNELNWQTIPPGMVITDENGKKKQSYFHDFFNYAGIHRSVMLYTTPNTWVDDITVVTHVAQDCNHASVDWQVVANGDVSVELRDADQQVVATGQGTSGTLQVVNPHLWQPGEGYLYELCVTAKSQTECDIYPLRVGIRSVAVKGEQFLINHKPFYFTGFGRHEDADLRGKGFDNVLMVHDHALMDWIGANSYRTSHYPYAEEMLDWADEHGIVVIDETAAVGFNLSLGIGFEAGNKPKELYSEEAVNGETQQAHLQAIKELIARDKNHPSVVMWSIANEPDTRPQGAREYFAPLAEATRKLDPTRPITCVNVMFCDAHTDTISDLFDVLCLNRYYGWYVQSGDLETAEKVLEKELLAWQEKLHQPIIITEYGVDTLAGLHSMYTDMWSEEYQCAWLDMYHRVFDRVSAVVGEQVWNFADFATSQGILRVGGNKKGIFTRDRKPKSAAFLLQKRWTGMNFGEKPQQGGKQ

B1: CACGTG E-box (dsDNA)
DNA 1: TAGCATCGATCGCACGTGATCGATCG
DNA 2: CGTACGATCGATCACGTGCGATCGAT
B1: binds [1].

B2: Mutated (no E-box) (dsDNA)
DNA 1: TAGCGCATCGATAAGCCTATCGATCG
DNA 2: CGTACGATCGATAGGCTTATCGATGC
B2: no binding [2].

B3: CATGTG E-box (dsDNA)
DNA 1: TAGCGCATCGATCATGTGATCGATCG
DNA 2: CGTACGATCGATCACATGATCGATGC
B3: binds [3]; no binding [4].
